The source of these data is patent US20230055411A1 (UNIVERSIT DE BRETAGNE OCCIDENTALE UBO, published 2023).

The Kd is the concentration at which binding is half-saturated. For orientation: EC50 (read off the curve) means the midpoint of the concentration-response curve. In general, kon refers to a measure of how fast the partners come together. As usually defined, the koff is the rate constant with which the complex falls apart.

The target in experiment [1] is T1, recombinant STIM1 EF/SAM peptide (STIM1 aa 58 to 201) (human, UniProt Q13586 58-201).
T1 construct: also called STIM1 EF/Hand peptide; soluble recombinant protein corresponding to the STIM1 EF-Hand domain
Kind of experiment: Octet (BLI), 1 to 1 fitting model, EF-SAM peptide at 200, 133.5 and 88.9 nM. The method, then: (§1) FIG. 10 represents the determination of the anti-STIM1 mAb clone B-Y12 affinity. […] High affinity interaction is characterized by a low K, a fast recognizing (high kon) and a stable formation of complexes (low kdis). kdis: dissociation rate constant. kon: complex formation rate.
(§2) Affinity constants (Kon, Kdis) were calculated.
Background: BLI is a label-free optical method that tracks binding on a fibre tip over time.

Experiment [2] deals with T2, STIM1 peptide 1A (STIM1 amino acids 128 to 168) (human, biotinylated in the ELISA of FIG. 3A (position not given)).
T2 construct: Immunization peptide from the SAM domain of STIM1
Kind of experiment: ELISA, Peptide 1A (aa 128-168) coated at 1 µg/mL, B-Y12 titrated. The method, then: (§3) FIG. 3 illustrated the validation by Elisa of the monoclonal anti-STIM1 antibody clone B-Y12. […] Anti-STIM1 mAb clone B-Y12 mAb (10 μg/ml) was diluted to 1/10 and antigens STIM1 biotinylated peptides used at concentrations of 50 ng/well for peptides 1A and 1B and 100 ng/well for peptide 2A and 10 ng/well for peptide 2B). Panel B: Specificity of the B-Y12 antibody for STIM1 is confirmed by ELISA using the peptide 1A and a recombinant STIM1 EF/SAM peptide (1 μg/mL). B-Y12 mAb used at 100 μg/mL diluted to 1/10. Panel C: Specificity for the B-Y12 antibody for the peptide 1A over the other peptides (1A, 1B, 2A, 2B, C2, C3, C4, C5, C6, C7 and C8. Peptides are used at a concentration of 1 μg/mL. Histograms represents mean optical density (OD) measured using an Elisa approach.

Experiment [3] concerns the target T1, recombinant STIM1 EF/SAM peptide (STIM1 …). Kind of experiment: Octet, 1 to 1 fitting model, EF-SAM peptide at 200 nM [table row 200]. The method, then:
as §1, §2

The target in experiment [4] is T3, peptide 1B (biotinylated in the ELISA of Figure 3 panel A).
T3 construct: also called STIM1 aa 169 to 197
Kind of experiment: ELISA, biotinylated peptide 1B at 50 ng/well, B-Y12 in 1/10 steps. The method, then: as §3

Experiment [5] has as its target T4, peptide 2B (biotinylated in the ELISA of Figure 3 panel A).
T4 construct: also called STIM1 aa 97 to 127
Nature of the experiment: ELISA, biotinylated peptide 2B at 10 ng/well, B-Y12 in 1/10 steps. The method, then:
as §3

Experiment [6] has as its target T5, peptide 2A (biotinylated in the ELISA of Figure 3 panel A).
T5 construct: also called STIM1 aa 62 to 95
Nature of the experiment: ELISA, biotinylated peptide 2A at 100 ng/well, B-Y12 in 1/10 steps. The method, then: as §3
In general terms: ELISA stands for enzyme-linked immunosorbent assay.

For experiment [7], the target named is T1, recombinant STIM1 EF/SAM peptide (STIM1 …). Nature of the experiment: Octet, 1 to 1 fitting model, EF-SAM peptide at 88,8 nM [table row 88,8]. The method, then:
as §1, §2

Experiment [8] shares this target. Nature of the experiment: Octet, 1 to 1 fitting model, EF-SAM peptide at 133,5 nM [table row 133,5]. The method, then: as §1, §2
For experiment [9] the target is unchanged. Nature of the experiment: Octet, 1 to 1 fitting model, EF-SAM peptide at 200 nM; column kdis(1/S) [table row 200]. The method, then: as §1, §2
Experiment [10] has the same target. Nature of the experiment: Octet, 1 to 1 fitting model, EF-SAM peptide at 88,8 nM; column kdis(1/S) [table row 88,8]. The method, then:
as §1, §2

Experiment [11] shares this target. Nature of the experiment: Octet, 1 to 1 fitting model, EF-SAM peptide at 133,5 nM; column kdis(1/S) [table row 133,5]. The method, then: as §1, §2
The target in experiment [12] is T6, STIM1 protein, mouse (plasma membrane STIM1 on spleen B and T cells of MRL/Lpr and C57Bl/6 mice) (mouse, UniProt P70302 23-685).
T6 construct: whole, on cells; also called mSTIM1 (mouse)
Kind of experiment: direct flow cytometry with PE coupled B-Y12, spleen B cells of MRL/Lpr mice (n=4) [B cells]. In general terms: Flow cytometry measures light scatter and fluorescence of single cells or particles in a stream.

T1 sequence (Q13586 58-201): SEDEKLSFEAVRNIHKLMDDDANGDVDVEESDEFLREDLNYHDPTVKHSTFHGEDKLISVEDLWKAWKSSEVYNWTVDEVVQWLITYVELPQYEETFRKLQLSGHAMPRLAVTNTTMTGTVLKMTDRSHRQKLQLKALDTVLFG
T4 sequence (peptide, as listed by the source): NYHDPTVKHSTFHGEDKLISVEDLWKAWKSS
T3 sequence (peptide, as listed by the source): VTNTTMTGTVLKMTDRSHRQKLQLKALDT
T2 sequence (peptide, as listed by the source): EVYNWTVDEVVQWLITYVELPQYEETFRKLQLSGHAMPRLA
T5 sequence (peptide, as listed by the source): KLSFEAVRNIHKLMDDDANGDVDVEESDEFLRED
T6 sequence (P70302 23-685): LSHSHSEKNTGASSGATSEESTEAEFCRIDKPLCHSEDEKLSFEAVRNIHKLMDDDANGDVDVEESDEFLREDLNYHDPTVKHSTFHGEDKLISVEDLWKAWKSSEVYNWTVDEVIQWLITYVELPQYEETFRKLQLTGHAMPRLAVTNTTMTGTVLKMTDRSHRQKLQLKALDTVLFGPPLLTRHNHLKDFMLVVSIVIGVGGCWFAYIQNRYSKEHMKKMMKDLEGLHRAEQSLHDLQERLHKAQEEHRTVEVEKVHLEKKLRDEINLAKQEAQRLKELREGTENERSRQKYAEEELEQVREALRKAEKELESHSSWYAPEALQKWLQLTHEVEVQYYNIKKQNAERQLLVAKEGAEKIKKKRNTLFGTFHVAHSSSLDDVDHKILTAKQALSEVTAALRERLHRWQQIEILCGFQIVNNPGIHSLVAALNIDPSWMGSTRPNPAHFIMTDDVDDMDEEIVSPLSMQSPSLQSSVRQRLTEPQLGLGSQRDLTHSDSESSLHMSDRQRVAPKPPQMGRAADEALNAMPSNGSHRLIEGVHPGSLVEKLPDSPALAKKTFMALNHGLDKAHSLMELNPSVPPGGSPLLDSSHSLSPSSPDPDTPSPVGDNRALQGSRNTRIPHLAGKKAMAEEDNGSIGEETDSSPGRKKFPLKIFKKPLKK

B1: monoclonal anti-STIM1 antibody clone B-Y12 (antibody, IgG2b, V domains shown)
VH: QVQLQQPGAELVKPGASVKLSCKASGYTFTSYWMHWVKLRPGQGFEWIGETNPRNGGTNYNEKFKRKATLTVDKSSSTAYMQLSSLTSEDSAVYYCTITKTVRATWYFDYWGQGTTLTVSS
VL: DVLMTQTPLSLPVSLGDQASISCRSSQSIVHSNGNTYLEWYLQKPGQSPKLLIYKVSNRFSGVPDRFSGSGSGTDFTLKISRVEAEDLGVYYCFQGSHVPYTFGGGTKLEIK
notes: In direct flow cytometry it was used coupled to phycoerythrin (PE); also called B-Y12 mAb; anti-STIM1 mAb clone B-Y12
For the molecule B1, in experiment [1], the dissociation constant Kd came to 15 nM. The concentration giving a half-maximal response (EC50 (read off the curve)) in experiment [2] was approximately 4 ng/mL. Further, the kon is 20000 M⁻¹ s⁻¹ in [3], 18800 M⁻¹ s⁻¹ in experiment [7] and 23700 M⁻¹ s⁻¹ in [8]. Also, the binding result in experiment [4] was “no binding”; in [5], “no binding”; in [6], “no binding”; in [12], “binds”. Moreover, the koff was determined as 0.0004 s⁻¹ in experiment [9], 0.000354 s⁻¹ in experiment [10] and 0.000322 s⁻¹ in experiment [11].
